# Measured values taken from patent US20070060537.
# Assays:
# [1] = target: E2 Ubch5c from bacteria, P61077
# [2] = target: GST-UbcH5a, P51668
# [3] = target: GST-UbcH5c, P61077
# [4] = target: His-UbcH6, P51965
# [5] = target: His6-UbcH13/Uev1a, Q13404
# Chain of His6-UbcH13/Uev1a, Q13404 (chain, as listed by the source, chain 1 of 2): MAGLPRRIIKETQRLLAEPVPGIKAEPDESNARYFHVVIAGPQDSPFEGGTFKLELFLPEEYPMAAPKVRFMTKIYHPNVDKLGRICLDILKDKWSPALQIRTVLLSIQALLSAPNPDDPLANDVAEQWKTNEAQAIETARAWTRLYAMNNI
# Chain of His6-UbcH13/Uev1a, Q13404 (Q13404 other isoform, or with tags, fused parts or gaps, chain 2 of 2): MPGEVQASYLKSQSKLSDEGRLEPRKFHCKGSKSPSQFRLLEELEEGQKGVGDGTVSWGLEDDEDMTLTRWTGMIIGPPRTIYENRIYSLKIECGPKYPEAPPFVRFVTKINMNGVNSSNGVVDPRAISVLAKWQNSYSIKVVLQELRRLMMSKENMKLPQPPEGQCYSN
# Chain of E2 Ubch5c from bacteria, P61077 (P61077 whole entry): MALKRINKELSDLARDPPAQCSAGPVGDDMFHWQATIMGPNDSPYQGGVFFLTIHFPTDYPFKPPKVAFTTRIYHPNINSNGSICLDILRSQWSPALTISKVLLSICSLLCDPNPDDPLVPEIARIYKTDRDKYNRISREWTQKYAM
# Chain of His-UbcH6, P51965 (P51965 whole entry): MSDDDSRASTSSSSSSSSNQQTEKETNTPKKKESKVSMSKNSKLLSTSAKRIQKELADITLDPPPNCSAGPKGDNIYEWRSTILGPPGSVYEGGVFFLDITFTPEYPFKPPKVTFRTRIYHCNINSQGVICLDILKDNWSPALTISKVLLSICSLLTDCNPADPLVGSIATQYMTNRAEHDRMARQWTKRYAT
# Chain of GST-UbcH5a, P51668 (P51668 whole entry): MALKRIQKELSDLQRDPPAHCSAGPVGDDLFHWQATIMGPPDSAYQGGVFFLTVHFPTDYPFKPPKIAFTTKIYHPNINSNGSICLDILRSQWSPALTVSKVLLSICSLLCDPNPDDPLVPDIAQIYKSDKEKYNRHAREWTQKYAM
# Chain of GST-UbcH5c, P61077 (P61077 whole entry): as the sequence (P61077 whole entry) above
Protein,in-vitro self-ubiquitination of hPOSH (anti-ubiquitin immunoblot) [1],"self-ubiquitination of hPOSH (high molecular weight ubiquitin-biotin conjugates, streptavidin blot) [2]","self-ubiquitination of hPOSH (high molecular weight ubiquitin-biotin conjugates, streptavidin blot) [3]","self-ubiquitination of hPOSH (high molecular weight ubiquitin-biotin conjugates, streptavidin blot) [4]","self-ubiquitination of hPOSH (high molecular weight ubiquitin-biotin conjugates, streptavidin blot) [5]"
POSH # 176 (1-269) gst fusion (protein) MDESALLDLLECPVCLERLDASAKVLPCQHTFCKRCLLGIVGSRNELRCPECRTLVGSGVEELPSNILLVRLLDGIKQRPWKPGPGGGSGTNCTNALRSQSSTVANCSSKDLQSSQGGQQPRVQSWSPPVRGIPQLPCAKALYNYEGKEPGDLKFSKGDIIILRRQVDENWYHGEVNGIHGFFPTNFVQIIKPLPQPPPQCKALYDFEVKDKEADKDCLPFAKDDVLTVIRRVDENWAEGMLADKIGIFPISYVEFNSAAKQLIEWDKP,"Ub-hPOSHconjugates, detected as high molecular weight adducts only in reactions containing E1, E2 and ubiquitin",,,,
POSH #178 (1-361) gst fusion (protein) MDESALLDLLECPVCLERLDASAKVLPCQHTFCKRCLLGIVGSRNELRCPECRTLVGSGVEELPSNILLVRLLDGIKQRPWKPGPGGGSGTNCTNALRSQSSTVANCSSKDLQSSQGGQQPRVQSWSPPVRGIPQLPCAKALYNYEGKEPGDLKFSKGDIIILRRQVDENWYHGEVNGIHGFFPTNFVQIIKPLPQPPPQCKALYDFEVKDKEADKDCLPFAKDDVLTVIRRVDENWAEGMLADKIGIFPISYVEFNSAAKQLIEWDKPPVPGVDAGECSSAAAQSSTAPKHSDTKKNTKKRHSFTSLTMANKSSQASQNRHSMEISPPVLISSSNPTAAARISELSGLSCSAPSQVHIST,"Ub-hPOSHconjugates, detected as high molecular weight adducts only in reactions containing E1, E2 and ubiquitin",,,,
GST-hPOSH1-139 (protein) MDESALLDLLECPVCLERLDASAKVLPCQHTFCKRCLLGIVGSRNELRCPECRTLVGSGVEELPSNILLVRLLDGIKQRPWKPGPGGGSGTNCTNALRSQSSTVANCSSKDLQSSQGGQQPRVQSWSPPVRGIPQLPCA,,"conjugation of ubiquitin to hPOSH was supported by four E2s, UbCH13/Uevla, UBCH5a, UBCH5c and UBCH6","conjugation of ubiquitin to hPOSH was supported by four E2s, UbCH13/Uevla, UBCH5a, UBCH5c and UBCH6","conjugation of ubiquitin to hPOSH was supported by four E2s, UbCH13/Uevla, UBCH5a, UBCH5c and UBCH6","conjugation of ubiquitin to hPOSH was supported by four E2s, UbCH13/Uevla, UBCH5a, UBCH5c and UBCH6"
